Test results as given in patent US20220119488A1, “BICYCLIC PEPTIDE LIGANDS SPECIFIC FOR INTEGRIN ALPHA-V-BETA-3” (priority 2019, published 2022).
Numbered stars: 1 amine (or outer) side, 2 acyl side, 3 side chain; on linkers, the order of the positions; unused ones are H or OH. Bridge positions count the residues as written; N and C are the ends. Square brackets hold non-standard residues; d marks the D form. Ends that are not written are not given here. TBMB = c1c(C[*:1])cc(C[*:3])cc1C[*:2]; Fl = fluorescein; Sar = CNCC(=O)O

Experiments:
human integrin αvβ3 [1] = target: T1, human integrin αvβ3 (human, UniProt P06756 31-992; P05106 27-718, limits assumed); assay: human FP direct binding; column 'Mean', n=2
T1 sequence (P06756 31-992 limits assumed, chain 1 of 2): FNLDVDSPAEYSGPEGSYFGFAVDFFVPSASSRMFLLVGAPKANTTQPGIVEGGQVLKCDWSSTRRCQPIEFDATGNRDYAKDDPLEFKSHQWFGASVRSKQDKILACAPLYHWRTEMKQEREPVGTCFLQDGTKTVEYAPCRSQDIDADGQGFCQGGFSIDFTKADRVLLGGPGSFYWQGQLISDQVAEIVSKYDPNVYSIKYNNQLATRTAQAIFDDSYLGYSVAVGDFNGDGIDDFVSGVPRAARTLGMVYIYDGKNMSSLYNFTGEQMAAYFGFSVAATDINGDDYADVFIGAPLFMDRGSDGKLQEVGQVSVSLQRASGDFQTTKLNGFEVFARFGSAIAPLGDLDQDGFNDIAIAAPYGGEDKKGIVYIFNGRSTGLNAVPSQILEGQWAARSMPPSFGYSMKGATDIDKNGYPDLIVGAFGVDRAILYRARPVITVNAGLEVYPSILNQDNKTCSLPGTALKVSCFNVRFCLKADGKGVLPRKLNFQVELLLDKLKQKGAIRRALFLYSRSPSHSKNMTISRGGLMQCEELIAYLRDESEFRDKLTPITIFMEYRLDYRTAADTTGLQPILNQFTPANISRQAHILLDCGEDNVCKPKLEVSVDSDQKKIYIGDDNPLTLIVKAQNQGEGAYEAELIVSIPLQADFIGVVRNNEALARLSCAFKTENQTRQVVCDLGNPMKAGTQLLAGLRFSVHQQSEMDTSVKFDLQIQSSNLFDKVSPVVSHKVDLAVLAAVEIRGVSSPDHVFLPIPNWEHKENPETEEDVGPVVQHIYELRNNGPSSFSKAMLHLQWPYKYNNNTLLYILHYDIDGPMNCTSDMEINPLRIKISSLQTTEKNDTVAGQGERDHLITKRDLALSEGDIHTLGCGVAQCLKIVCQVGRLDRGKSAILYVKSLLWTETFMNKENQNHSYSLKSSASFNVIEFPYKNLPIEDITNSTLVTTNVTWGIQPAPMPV
T1 sequence (P05106 27-718 limits assumed, chain 2 of 2): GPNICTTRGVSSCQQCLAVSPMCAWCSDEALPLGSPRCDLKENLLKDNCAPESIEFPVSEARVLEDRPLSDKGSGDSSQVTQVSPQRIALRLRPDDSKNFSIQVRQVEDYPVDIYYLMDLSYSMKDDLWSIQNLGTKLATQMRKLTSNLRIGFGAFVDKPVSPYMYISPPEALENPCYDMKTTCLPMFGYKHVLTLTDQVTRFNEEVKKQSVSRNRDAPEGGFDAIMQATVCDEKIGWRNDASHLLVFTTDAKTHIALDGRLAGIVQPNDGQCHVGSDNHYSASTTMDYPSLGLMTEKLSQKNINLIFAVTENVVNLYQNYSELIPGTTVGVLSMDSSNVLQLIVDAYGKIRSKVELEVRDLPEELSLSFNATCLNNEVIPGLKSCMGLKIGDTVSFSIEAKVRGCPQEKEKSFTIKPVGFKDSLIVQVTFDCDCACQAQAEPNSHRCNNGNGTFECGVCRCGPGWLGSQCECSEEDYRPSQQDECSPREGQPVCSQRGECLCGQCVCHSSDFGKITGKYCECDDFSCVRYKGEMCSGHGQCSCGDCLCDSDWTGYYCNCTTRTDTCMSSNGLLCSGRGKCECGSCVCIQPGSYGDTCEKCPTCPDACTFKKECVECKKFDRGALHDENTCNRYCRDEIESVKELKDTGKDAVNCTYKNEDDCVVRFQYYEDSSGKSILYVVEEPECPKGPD

human integrin αvβ3 [2] = target: T1, human integrin αvβ3; assay: human FP direct binding; n=2
human integrin αvβ3 [3] = target: T1, human integrin αvβ3; assay: human FP direct binding; column 'Mean', n=9

Kd (human integrin αvβ3 [1]) [nM]	Kd (human integrin αvβ3 [2]) [nM]	Kd (human integrin αvβ3 [3]) [nM]	Binder
2	2	–	Ac-CILRPNCDLDGRCA[Sar][Sar][Sar][Sar][Sar][Sar]K (linker 1-7-13 via TBMB; not fully specified (residue 21); also: Fl on the C-terminal K, Fluorescent bicyclic peptide) [BCY2577]
–	–	9	ACLDHMECRGDMDCAXXXXXXK (Sar6 (six sarcosines); fluorescein (Fl) on the C-terminal K; Ci, Cii and Ciii bound to the TBMB scaffold, Fluorescent bicyclic peptide) [BCY2572]
1	1	–	Fl-G[Sar][Sar][Sar][Sar][Sar]ACLDHMECRGDMDC (linker 8-14-20 via TBMB, Fluorescent bicyclic peptide) [BCY2573]
